Values quoted from earlier work in PMC3428507.

Target: Pf1 MBD (Homo sapiens) (UniProt Q96QT6)
Sequence (Q96QT6 200-241): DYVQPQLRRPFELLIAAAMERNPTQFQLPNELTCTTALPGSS

Sequence of MRG15 MRG (Q9UBU8 188-362): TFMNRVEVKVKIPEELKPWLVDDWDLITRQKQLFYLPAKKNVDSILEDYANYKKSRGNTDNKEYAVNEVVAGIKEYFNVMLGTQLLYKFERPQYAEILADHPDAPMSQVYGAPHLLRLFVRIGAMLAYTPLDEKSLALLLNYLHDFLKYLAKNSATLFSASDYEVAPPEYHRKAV

In the case of MRG15 MRG (from UniProt Q9UBU8), the Kd is given as 15 nM.
